Experimental data taken from article PMC11134845.

Biological target: HSV-2G gB ectodomain (recombinant glycoprotein B of Herpes simplex virus 2 strain G, aa 22-724) (Herpes simplex virus 2 (strain G))
Experiment: cryo-EM structure

HSV-2G gB ectodomain (recombinant glycoprotein B of Herpes simplex virus 2 strain G, aa 22-724) (domain or fragment)
stoichiometry N: 3
